Assay results reported in patent US20210024639A1 (AGOMAB THERAPEUTICS, published 2021).

Legend:
[1] = target: T1, native human MET on living human cells (human, UniProt P08581 25-1390); experiment: flow cytometry, A549 cells
T1 construct: whole, on cells; also called Human cells (A549); HPAF-II
Procedure: (§1) We also analysed whether chimeric anti-MET antibodies bound to native human and mouse MET in living cells. […] Antibody binding to cells was analysed by flow cytometry using phycoerythrin-conjugated anti-human IgG1 antibodies (eBioscience) and a CyAn ADP analyser (Beckman Coulter). As a positive control for human MET binding, we used a commercial mouse anti-human MET antibody (R&D Systems) and phycoerythrin-conjugated anti-mouse IgG1 antibodies (eBioscience). As a positive control for mouse MET binding we used a commercial goat anti-mouse MET antibody (R&D Systems) and phycoerythrin-conjugated anti-goat IgG1 antibodies (eBioscience). […] Consistent with the data obtained in ELISA, maximal binding (EMAX) varied depending on antibody, but was similar in human and mouse cells.

[2] = target: T1, native human MET on living human cells; experiment: cell-based or functional assay
[3] = target: T2, native mouse MET on living mouse cells (mouse, UniProt P16056 25-1379); experiment: cell-based or functional assay
[4] = target: human MET ECD mutant E (mutations 2, 3, 4) (human) (UniProt P08581); experiment: ELISA, MET ECD mutant in solid phase, mAb 0-50 nM
[5] = target: human MET ECD mutant H (mutations 2, 4) (human) (UniProt P08581); experiment: ELISA, MET ECD mutant in solid phase, mAb 0-50 nM
[6] = target: human MET ECD mutant D (mutations 1, 2) (human) (UniProt P08581); experiment: ELISA, MET ECD mutant in solid phase, mAb 0-50 nM
[7] = target: human MET ECD mutant A (mutations 1, 2, 3) (human) (UniProt P08581); experiment: ELISA, MET ECD mutant in solid phase, mAb 0-50 nM
[8] = target: T1, native human MET on living human cells; experiment: cell-based or functional assay; remark: listed apart in the source
[9] = target: T2, native mouse MET on living mouse cells; experiment: cell-based or functional assay; remark: listed apart in the source
[10] = target: T3, human MET extracellular domain (ECD) (human, UniProt P08581 25-932); experiment: ELISA, MET ECD in solid phase, mAb 0-50 nM
T3 construct: range 1-932; recombinant ECD; also called hMET; human MET ECD
Procedure: Using human MET as a template, we mutagenized each of these residues in different permutations, generating a series of MET mutants that are fully human except for specific residues, which are llama. Next, we tested the affinity of selected SEMA-binding mAbs (71D6, 71C3, 71D4, 71A3, 71G2) and PSI-binding mAbs (76H10 and 71G3) for these MET mutants by ELISA. To this end, the various MET proteins were immobilized in solid phase (100 ng/well in a 96-well plate) and then exposed to increasing concentrations of antibodies (0-50 nM) solution. […] Wild-type human MET was used as positive control.
TABLE 18 The epitopes of MET responsible for agonistic antibody binding represent residues conserved among H. sapiens, M. musculus, R. norvegicus, M. fascicularis but not among the same species and L. glama. The relevance of residues conserved among human, mouse, rat, cynomolgus monkey but not llama MET for binding to agonistic mAbs was tested by ELISA. Wild-type (WT) or mutant (MT) human MET ECD was immobilized in solid phase and exposed to increasing concentrations of mAbs in solution. […] All binding values were normalized to the WT protein and are expressed as % binding (EMAX) compared to WT MET.

[11] = target: T2, native mouse MET on living mouse cells; experiment: flow cytometry, MLP29 cells
Procedure: as §1

[12] = target: T4, human MET-Fc chimeric protein (R&D Systems) (human, UniProt P08581 25-932); experiment: competition ELISA, hMET-Fc in solid phase, competitor 0.3 nM biotinylated hHGF
T4 construct: extracellular domain; bought (R&D Systems); also called hMET; not shown: Fc portion of human IgG1
Procedure: (§2) To investigate along this line, we tested the competition between mAbs and HGF by ELISA. Recombinant human and mouse HGF (R&D Systems) were biotinylated at the N-terminus using NHS-LC-biotin (Thermo Scientific). MET-Fc protein, either human or mouse (R&D Systems), was immobilized in solid phase and then exposed to 0.3 nM biotinylated HGF, either human or mouse, in the presence of increasing concentrations of antibodies (0-120 nM).
(§3) A MET-Fc chimeric protein (either human or mouse) was immobilized in solid phase and exposed to a fixed concentration of biotinylated HGF (either human or mouse), in the presence of increasing concentrations of antibodies. […] Antibody-HGF competition is expressed as IC₅₀ (the concentration that achieves 50% competition) and IMAX (the maximum % competition reached at saturation).

[13] = target: T5, mouse MET-Fc chimeric protein (R&D Systems) (mouse, UniProt P16056 25-929, limits assumed); experiment: competition ELISA, mMET-Fc in solid phase, competitor 0.3 nM biotinylated mHGF
T5 construct: bought (R&D Systems); also called mMET; not shown: Fc
Procedure: as §2, §3

Row | EMAX (% relative to control) [1] [%] | cell scattering score, HPAF-II, 0.001 nM [2] [score 0-4] | cell scattering score, HPAF-II, 0.004 nM [2] [score 0-4] | cell scattering score, HPAF-II, 0.012 nM [2] [score 0-4] | cell scattering score, HPAF-II, 0.037 nM [2] [score 0-4] | cell scattering score, HPAF-II, 0.111 nM [2] [score 0-4] | cell scattering score, HPAF-II, 0.333 nM [2] [score 0-4] | cell scattering score, HPAF-II, 1.000 nM [2] [score 0-4] | cell scattering score, HPAF-II, 3.000 nM [2] [score 0-4] | cell scattering score, HPAF-II, 9.000 nM [2] [score 0-4] | cell scattering score, MLP29, 0.001 nM [3] [score 0-4] | cell scattering score, MLP29, 0.004 nM [3] [score 0-4] | cell scattering score, MLP29, 0.012 nM [3] [score 0-4] | cell scattering score, MLP29, 0.037 nM [3] [score 0-4] | cell scattering score, MLP29, 0.111 nM [3] [score 0-4] | cell scattering score, MLP29, 0.333 nM [3] [score 0-4] | cell scattering score, MLP29, 1.000 nM [3] [score 0-4] | cell scattering score, MLP29, 3.000 nM [3] [score 0-4] | cell scattering score, MLP29, 9.000 nM [3] [score 0-4] | % binding (EMAX) compared to WT MET [4] [%] | Binder | also measured
1 | 113 | 0 | 1 | 2 | 3 | 4 | 4 | 4 | 4 | 4 | 0 | 1 | 2 | 3 | 4 | 4 | 4 | 4 | 4 | 43.6 | chimeric llama-human IgG1 mAb 71D6 (antibody, V domains shown) VH: ELQLVESGGGLVQPGGSLRLSCAASGFTFSSYGMSWVRQAPGKGLEWVSAINSYGGSTSYADSVKGRFTISRDNAKNTLYLQMNSLKPEDTAVYYCAKEVRADLSRYNDYESYDYWGQGTQVTVSS VL: QPVLNQPSALSVTLGQTAKITCQGGSLGARYAHWYQQKPGQAPVLVIYDDDSRPSGIPERFSGSSSGGTATLTISGAQAEDEGDYYCQSADSSGSVFGGGTHLTVL | % binding (EMAX) compared to WT MET [5]: 38.6%; % binding (EMAX) compared to WT MET [6]: 128%; % binding (EMAX) compared to WT MET [7]: 103%; protection from staurosporine, viability EC50, MCF10A [8]: 1.48 nM; protection from staurosporine, viability EMAX, MCF10A [8]: 66.8%; protection from staurosporine, viability EC50, MLP29 [9]: 0.95 nM; protection from staurosporine, viability EMAX, MLP29 [9]: 68.3%; % binding (EMAX) compared to WT MET [10]: 100%; EMAX (% relative to control) [11]: 121%; IMAX (maximum % competition) [12]: 98.3%; IMAX (maximum % competition) [13]: 90.5%
2 | 106 | 0 | 0 | 0 | 0 | 1 | 2 | 3 | 4 | 4 | 0 | 0 | 0 | 0 | 1 | 2 | 3 | 4 | 4 | 59.6 | chimeric llama-human IgG1 mAb 71C3 (antibody, V domains shown) VH: QLQLVESGGGLVQPGGSLRLSCAASGFTFSSHAMSWVRQAPGKGLEWVSAINSGGGSTSYADSVKGRFTISRDNAKNTLYLQMNSLKPEDTAVYYCAKELRFDLARYTDYEAWDYWGQGTQVTVSS VL: SYELTQPSALSVTLGQTAKITCQGGSLGSSYAHWYQQKPGQAPVLVIYDDDSRPSGIPERFSGSSSGGTATLTISGAQAEDEGDYYCQSADSSGNAAVFGGGTHLTVL | % binding (EMAX) compared to WT MET [5]: 61.6%; % binding (EMAX) compared to WT MET [6]: 102%; % binding (EMAX) compared to WT MET [7]: 99.8%; protection from staurosporine, viability EC50, MCF10A [8]: 31.9 nM; protection from staurosporine, viability EMAX, MCF10A [8]: 50.2%; protection from staurosporine, viability EC50, MLP29 [9]: 31 nM; protection from staurosporine, viability EMAX, MLP29 [9]: 51.3%; % binding (EMAX) compared to WT MET [10]: 100%; EMAX (% relative to control) [11]: 115%; IMAX (maximum % competition) [12]: 93.6%; IMAX (maximum % competition) [13]: 89.2%
